Test [1] has as its target T1, mouse CEACAM1 (mouse, UniProt P31809 35-521, limits assumed).
T1 sequence (looked up): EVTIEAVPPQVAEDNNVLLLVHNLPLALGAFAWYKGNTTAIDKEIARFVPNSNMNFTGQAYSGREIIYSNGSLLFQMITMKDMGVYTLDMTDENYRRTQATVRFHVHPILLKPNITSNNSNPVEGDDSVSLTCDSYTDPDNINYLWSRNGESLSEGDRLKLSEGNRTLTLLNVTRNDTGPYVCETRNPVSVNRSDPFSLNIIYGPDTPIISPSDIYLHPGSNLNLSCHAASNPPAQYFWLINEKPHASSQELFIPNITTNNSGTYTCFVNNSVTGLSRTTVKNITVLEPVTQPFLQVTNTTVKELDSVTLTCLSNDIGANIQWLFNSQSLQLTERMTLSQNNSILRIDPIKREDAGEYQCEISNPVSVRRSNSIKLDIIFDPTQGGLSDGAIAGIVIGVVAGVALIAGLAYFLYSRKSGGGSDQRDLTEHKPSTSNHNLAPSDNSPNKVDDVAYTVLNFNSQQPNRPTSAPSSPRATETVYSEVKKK
Nature of the test: flow cytometry dot plot (x: mIgG1 CONTROL, y: FITC). Cells of the 5F4-treated mouse group, isotype control staining for the 5F4 panel above it. In general terms: A flow cytometer gives signals particle by particle.

For test [2], the target named is human CEACAM1 (human) (UniProt P13688). Description: flow cytometry dot plot (x: mIgG1 CONTROL, y: FITC). Cells of the MOPC-treated mouse group, isotype control staining for the 5F4 panel above it.
Chain of human CEACAM1 (human) (P13688 35-526): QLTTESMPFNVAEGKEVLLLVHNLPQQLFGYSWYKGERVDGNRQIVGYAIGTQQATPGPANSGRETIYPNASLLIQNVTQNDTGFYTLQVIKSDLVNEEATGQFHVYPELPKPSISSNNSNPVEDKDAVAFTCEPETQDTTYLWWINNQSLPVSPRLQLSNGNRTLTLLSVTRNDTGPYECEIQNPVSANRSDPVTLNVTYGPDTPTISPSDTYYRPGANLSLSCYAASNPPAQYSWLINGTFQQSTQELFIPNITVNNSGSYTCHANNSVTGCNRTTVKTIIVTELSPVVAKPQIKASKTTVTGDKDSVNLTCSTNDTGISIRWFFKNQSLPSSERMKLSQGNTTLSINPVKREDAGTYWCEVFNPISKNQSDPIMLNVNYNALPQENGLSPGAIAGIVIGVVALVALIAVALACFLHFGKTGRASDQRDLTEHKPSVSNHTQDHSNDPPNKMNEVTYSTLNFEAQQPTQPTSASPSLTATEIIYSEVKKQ
The target in test [3] is T1, mouse CEACAM1. Nature of the test: flow cytometry, 5F4 staining of lymph node cells of the 5F4-treated mouse group (mouse cells; per the legend no human CEACAM1+ cells present).
The target of test [4] is human CEACAM1 (human) (UniProt P13688). Nature of the test: flow cytometry dot plot (x: hCEACAM1 (5F4), y: FITC). Per the legend, axillary lymph node cells of an MOPC-treated Rag2-/- mouse 2 weeks after s.c. AsPc-1 inoculation. Gated events spread from about 10^3 to above 10^4 on the x axis. The panel is marked *.

Turning to mIgG1 CONTROL (antibody), the number printed in the same gate of the dot plot with mouse CEACAM1 [1] was determined as 1.27; in the test with human CEACAM1 (human) [2] it was 0.667.

B1: 5F4 mouse anti-human CEACAM1 monoclonal antibody (hybridoma 5F4/2C6/2H3) (antibody, mouse IgG1, V domains shown)
VH: EVQLVESGGDLVKPGGSLKLACAASGFIFSSHGMSWVRQTPDKRLEWVATISSGGTYTYYPDSVKGRFTISRDNDKNTLYLQMNSLKSEDTAMYYCARHDFDYDAAWFAYWGQGTLVTVSA
VL: QIVLTQSPALMSASPGVKVTMTCSANSSVSYMYWYRQKPRSSPKPWIYLTSNLASGVPARFSGSGSGTSYSLTISSMEAEDAATYYCQQWSSNPPTFGSGTKLEIK
notes: also called 5F4 antibody; 5F4 monoclonal antibody
Consider B1, for which the binding result in the test with mouse CEACAM1 [3] is “no binding”. The molecule further displayed a number printed in the hCEACAM1 (5F4)-positive gate of the dot plot in the test with human CEACAM1 (human) [4] of 2.15.
